The record followed here is article PMC10531723.

The test concerns the target PrP-CFP (mouse PrP(23-231) fused to CFP) (mouse) (UniProt P04925). Nature of the test: FRET or BRET. In general terms: In BRET a luciferase serves as donor, and the signal depends on an acceptor being close.

“PrP-YFP (mouse PrP(23-231) fused to YFP) (from UniProt P04925 23-231) (domain or fragment)” came in with an FRET efficiency of 31%.
